In patent publication US20170253645A1 (published 2017):
Values joined by “and” are separate entries in the source; they are usually repeats but may differ in a detail not shown here. Equal entries are not always repeated.

What was measured:
TNF-α [1] = biological target: T1, TNF-α (UniProt P01375 77-233, biotinylated (sites not given)); test: Octet BLI, biotinylated TNF-α on streptavidin tips, A6+Fc at 370 nM
T1 construct: Bought protein; also called biotintylated TNF-α soluble protein
Method: (§1) The target protein was biotintylated TNF-α soluble protein (R&D Systems) and is at a concentration of 0.25 ug/ml for loading onto the streptavidin sensor tips. […] The Octet was run using the manufacturers protocol for Basic Kinetic Assay.

TNF-α [2] = biological target: T1, TNF-α; test: Octet BLI, biotinylated TNF-α on streptavidin tips, A6 at 290 nM
Method: as §1

HMGB1 = biological target: T2, HMGB1 (UniProt P09429 1-215, limits assumed, biotinylated in the RAGE assay (sites not given)); test: Octet BLI
T2 construct: also called biotinylated HMGB1
T2 sequence (looked up): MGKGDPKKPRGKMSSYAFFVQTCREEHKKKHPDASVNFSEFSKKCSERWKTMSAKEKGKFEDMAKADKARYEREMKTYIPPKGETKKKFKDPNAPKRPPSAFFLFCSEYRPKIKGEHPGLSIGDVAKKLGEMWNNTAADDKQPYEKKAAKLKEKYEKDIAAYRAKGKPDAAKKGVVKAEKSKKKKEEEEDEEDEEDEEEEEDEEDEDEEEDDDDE
Description: We measured association and disassociation rates using the Octet (FIG. 26C).

T1 sequence (P01375 77-233 limits assumed): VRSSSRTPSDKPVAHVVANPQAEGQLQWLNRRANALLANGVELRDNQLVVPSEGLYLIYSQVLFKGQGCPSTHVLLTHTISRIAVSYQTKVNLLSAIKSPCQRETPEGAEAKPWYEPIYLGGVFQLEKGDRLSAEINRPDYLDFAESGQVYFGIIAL

B1: R41A6 Fc fusion protein (A6+Fc) (Fc fusion)
chain: NVSPPRRARVTDATETTITISWEHSEDDCYSYIYYFQVDAVPANGQTPIQRTISGYETYYTITGLQPGTDYKIYLYTLNSAGFCPPYSKPVVIDAST
notes: Expressed in E. coli BL-21(DE3) from pET-20b with pelB signal; it calls A6 alone monomeric; also called pET-20b+TNF A6+Fc #39; 14FN3-Fc fusion; not shown: C-terminal hexahistidine tag of pET-20b
For B1, the Kd (TNF-α [1]) was 24.8 nM and 14.9 nM and 11.7 nM, the koff (TNF-α [1]) was 0.000226 s⁻¹ and 0.00022 s⁻¹ and 0.000229 s⁻¹ and the kon (TNF-α [1]) was 9120 M⁻¹ s⁻¹ and 14900 M⁻¹ s⁻¹ and 19500 M⁻¹ s⁻¹.

B2: TNF-α binder R41A6 (designed binder)
chain: NVSPPRRARVTDATETTITISWEHSEDDCYSYIYYFQVDAVPANGQTPIQRTISGYETYYTITGLQPGTDYKIYLYTLNSAGFCPPYSKPVVIDAST
notes: 14FN3 scaffold variant from the tyrosine WTM library; Octet); The NcoI primer adds ATGGAA before the NVSPP start in the pET-20b construct; also called TNF A6; not shown: C-terminal hexahistidine tag from pET-20b (Octet), or c-myc + 6xHis tags from the phagemid (soluble ELISA)
In the case of B2, the koff (TNF-α [2]) is reported as 0.000438 s⁻¹ and 0.000267 s⁻¹.

B3: P2F3 anti-HMGB1 (designed binder)
chain: NVSPPRRARVTDATETTITIRWGVPHSFQVDAVPANGQTPIQRTIKRGVRSYTITGLQPGTDYKIYLYTLNDNARSSPVVIDAST
notes: soluble 6xHis-tagged protein in Octet; not shown: C-terminal tags from the phagemid incl; 6xHis (soluble form)
B3 showed a Kd (HMGB1) of 277 nM and a kon (HMGB1) of 97900 M⁻¹ s⁻¹.
